Measured values reported in patent US6967029.

How the values were obtained:
[1] = target: endogenous c-kit of COS-1 cells (cells transfected with V19.8 alone); test: 1.6 nM rat 125I-SCF^1-164 + 320 nM unlabelled rat SCF^1-164, membranes of COS-1 cells transfected with V19.8 alone
[2] = target: human recombinant c-kit ligand binding plus transmembrane domains (hckit-LT1) expressed in COS-1 cells (human) (UniProt P10721); test: 1.6 nM rat 125I-SCF^1-164 + 320 nM unlabelled rat SCF^1-164, membranes of COS-1 cells transfected with V19.8:hckit-LT1
[3] = target: endogenous c-kit of COS-1 cells (cells transfected with V19.8 alone); test: 1.6 nM rat 125I-SCF^1-164 on membrane fractions of COS-1 cells transfected with V19.8 alone
[4] = target: human recombinant c-kit ligand binding plus transmembrane domains (hckit-LT1) expressed in COS-1 cells (human) (UniProt P10721); test: 1.6 nM rat 125I-SCF^1-164 on membrane fractions of COS-1 cells transfected with V19.8:hckit-LT1
[5] = target: human recombinant c-kit ligand binding plus transmembrane domains (hckit-LT1) expressed in COS-1 cells (human) (UniProt P10721); test: 1.6 nM human 125I-SCF^1-164 on membrane fractions of COS-1 cells transfected with V19.8:hckit-LT1
[6] = target: human recombinant c-kit ligand binding plus transmembrane domains (hckit-LT1) expressed in COS-1 cells (human) (UniProt P10721); test: 1.6 nM human 125I-SCF^1-164 + 320 nM unlabelled human SCF^1-164, membranes of COS-1 cells transfected with V19.8:hckit-LT1
[7] = target: endogenous c-kit of COS-1 cells (cells transfected with V19.8 alone); test: 1.6 nM human 125I-SCF^1-164 on membrane fractions of COS-1 cells transfected with V19.8 alone
[8] = target: endogenous c-kit of COS-1 cells (cells transfected with V19.8 alone); test: 1.6 nM human 125I-SCF^1-164 + 320 nM unlabelled human SCF^1-164, membranes of COS-1 cells transfected with V19.8 alone

| CPM Bound [1] [cpm] | CPM Bound [2] [cpm] | CPM Bound [3] [cpm] | CPM Bound [4] [cpm] | CPM Bound [5] [cpm] | CPM Bound [6] [cpm] | CPM Bound [7] [cpm] | CPM Bound [8] [cpm] | Substance |
| --- | --- | --- | --- | --- | --- | --- | --- | --- |
| 550 | 1100 | 1100 | 70000 |  |  |  |  | rat SCF^1-164 (radioiodinated; Example 15) (from UniProt P21581 26-189) (ligand) |
|  |  |  |  | 59400 | 2380 | 2160 | 2150 | human SCF^1-164 (radioiodinated; Examples 13 and 15) (from UniProt P21583 26-189) (ligand) |
